By Kd is commonly meant the concentration at which binding is half-saturated.

We go through one substance from paper PMC9652086.

This test addresses h4#147D, humanized IgG4-formatted anti-CD147 antibody (IgG4Pro, heavy chain S228P) (human). Kind of test: SPR; Biacore T200; purified h4#147D captured on the sensor chip with a human antibody capture kit, recombinant human or monkey CD147 injected; 1:1 fitting model. For orientation: Surface plasmon resonance follows binding to a sensor surface in real time, without labels.

Sequence of h4#147D, humanized IgG4-formatted anti-CD147 antibody (IgG4Pro, heavy chain S228P) (human) (heavy, as listed by the source, chain 1 of 2): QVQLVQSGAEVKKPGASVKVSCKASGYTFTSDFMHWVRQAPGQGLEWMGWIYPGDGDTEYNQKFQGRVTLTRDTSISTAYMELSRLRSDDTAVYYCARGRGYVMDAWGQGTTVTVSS
Sequence of h4#147D, humanized IgG4-formatted anti-CD147 antibody (IgG4Pro, heavy chain S228P) (human) (light, as listed by the source, chain 2 of 2): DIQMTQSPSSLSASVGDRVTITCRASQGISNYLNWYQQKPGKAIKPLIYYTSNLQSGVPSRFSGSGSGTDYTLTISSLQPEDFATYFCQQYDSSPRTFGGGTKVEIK

Turning to “recombinant monkey CD147 protein (natural protein)”, the Kd stood at 5.8 nM.
